The values that follow come from article PMC5788916, “The SAM domain of mouse SAMHD1 is critical for its activation and regulation” (Nature Communications, 2018).

Series [1] deals with mouse SAMHD1 HD domain, isoform 2 (residues 145-651) (mouse). Briefly: AUC; sedimentation velocity, 0.8-1.3 mg/mL, 20 °C, 50 mM Tris-HCl pH 8.0, 150 mM NaCl, 5 mM MgCl2, 0.5 mM TCEP; with 150 uM nucleotides (dGTP-α-S).
For series [2] the target is unchanged. Briefly: AUC; sedimentation velocity, 0.8-1.3 mg/mL, 20 °C, 50 mM Tris-HCl pH 8.0, 150 mM NaCl, 5 mM MgCl2, 0.5 mM TCEP; protein alone, no nucleotides added.
Series [3] has the same target. Put plainly: SEC; Superdex 200 10/300 GL; 2 mg/ml, 200 ul; 50 mM Tris-HCl pH 8.0, 150 mM NaCl, 5 mM MgCl2, 0.5 mM TCEP; after addition of dGTP-α-S (methods: nucleotide 4 mM final); read-out: assembly of monomers or dimers into tetramers.
Series [4] shares this target. Briefly: AUC; sedimentation velocity, 0.8-1.3 mg/mL, 20 °C, 50 mM Tris-HCl pH 8.0, 150 mM NaCl, 5 mM MgCl2, 0.5 mM TCEP; with 150 uM nucleotides (dGTP-α-S). The source holds these as a separate data set.
Series [5] concerns the target full-length mouse SAMHD1 (mSAMHD1), wild type (mouse) (UniProt Q60710). Put plainly: crystal structure; 1-Allo: co-crystallised with 4 mM dGTP-α-S; space group P2(1)2(1)2, 2 copies in the asymmetric unit; 3.4 Å.
Series [6] shares this target. Put plainly: crystal structure; No-Allo (0-Allo): crystallised without nucleotides; space group C2, 4 copies in the asymmetric unit; 3.5 Å.
Series [7] has the same target. Briefly: AUC; sedimentation velocity, 0.8-1.3 mg/mL, 20 °C, 50 mM Tris-HCl pH 8.0, 150 mM NaCl, 5 mM MgCl2, 0.5 mM TCEP; protein alone, no nucleotides added.
For series [8] the target is unchanged. Briefly: SEC; Superdex 200 10/300 GL; 2 mg/ml, 200 ul; 50 mM Tris-HCl pH 8.0, 150 mM NaCl, 5 mM MgCl2, 0.5 mM TCEP; after addition of dGTP-α-S (methods: nucleotide 4 mM final); read-out: assembly of monomers or dimers into tetramers.
The target is the same in series [9]. Put plainly: not stated; up to 24 h of assembly with dGTP-α-S (Supplementary Fig. 1a).
For series [10] the target is unchanged. Briefly: AUC; sedimentation velocity, 0.8-1.3 mg/mL, 20 °C, 50 mM Tris-HCl pH 8.0, 150 mM NaCl, 5 mM MgCl2, 0.5 mM TCEP; with 150 uM nucleotides (dGTP-α-S).
The target is the same in series [11]. The description is as above. This is another data set of the same source.
For series [12] the target is unchanged. Briefly: SEC; Superdex 200 10/300 GL; 2 mg/ml, 200 ul; 50 mM Tris-HCl pH 8.0, 150 mM NaCl, 5 mM MgCl2, 0.5 mM TCEP; no nucleotides added.
For series [13] the target is unchanged. Put plainly: SEC; Superdex 200 10/300 GL; 2 mg/ml, 200 ul; 50 mM Tris-HCl pH 8.0, 150 mM NaCl, 5 mM MgCl2, 0.5 mM TCEP; after addition of dGTP-α-S (methods: nucleotide 4 mM final); read-out: assembly of monomers or dimers into tetramers. The source holds these as a separate data set.
Series [14] concerns the molecule itself. The description is as above.
Series [15] concerns the molecule itself. Briefly: AUC; sedimentation velocity, 0.8-1.3 mg/mL, 20 °C, 50 mM Tris-HCl pH 8.0, 150 mM NaCl, 5 mM MgCl2, 0.5 mM TCEP; protein alone, no nucleotides added.

Values joined by “and” are separate entries in the source; they are usually repeats but may differ in a detail not shown here. Equal values may be shown once.

In the case of “mouse SAMHD1 HD domain, isoform 2 (residues 145-651) (domain or fragment)”, the stoichiometry N in series [1] is 2; in series [2] it was 2; in [3] it was 4; in series [4], 4.

Turning to “full-length mouse SAMHD1 (mSAMHD1), wild type (from UniProt Q60710 1-658) (enzyme)”, the stoichiometry N was 4 in series [5]; 4 in [6]; 2 and 4 in series [7]; 2 in series [8]; 4 in [9]; 4 in [10]. In addition, the stoichiometry N is 2 in series [11]; 2 and 4 in series [12]; 4 in [13].

B1: human SAMHD1 L77F/C80F/H111R triple mutant (FFR) (enzyme, UniProt Q9Y3Z3 1-626, looked up)
chain: MQRADSEQPSKRPRCDDSPRTPSNTPSAEADWSPGLELHPDYKTWGPEQVCSFLRRGGFEEPVLLKNIRENEITGAFLPFLDESRFENLGVSSLGERKKLLSYIQRLVQIRVDTMKVINDPIHGHIELHPLLVRIIDTPQFQRLRYIKQLGGGYYVFPGASHNRFEHSLGVGYLAGCLVHALGEKQPELQISERDVLCVQIAGLCHDLGHGPFSHMFDGRFIPLARPEVKWTHEQGSVMMFEHLINSNGIKPVMEQYGLIPEEDICFIKEQIVGPLESPVEDSLWPYKGRPENKSFLYEIVSNKRNGIDVDKWDYFARDCHHLGIQNNFDYKRFIKFARVCEVDNELRICARDKEVGNLYDMFHTRNSLHRRAYQHKVGNIIDTMITDAFLKADDYIEITGAGGKKYRISTAIDDMEAYTKLTDNIFLEILYSTDPKLKDAREILKQIEYRNLFKYVGETQPTGQIKIKREDYESLPKEVASAKPKVLLDVKLKAEDFIVDVINMDYGMQEKNPIDHVSFYCKTAPNRAIRITKNQVSQLLPEKFAEQLIRVYCKKVDRKSLYAARQYFVQWCADRNFTKPQDGDVIAPLITPQKKEWNDSTSVQNPTRLREASKSRVQLFKDDPM
notes: human SAMHD1 with three SAM domain residues changed to their mouse counterparts; compared with full-length WT hSAMHD1; also called FFR mutant; source: purified
B1: the “stoichiometry N” value in series [14] is 4.

B2: mouse SAMHD1 HD domain, isoform 1 (residues 145-658) (domain or fragment, UniProt Q60710 145-658, looked up)
chain: DLMKVFNDPIHGHIEFHPLLIRIIDTPQFQRLRYIKQLGGGYYVFPGASHNRFEHSLGVGYLAGCLVRALAEKQPELQISERDILCVQIAGLCHDLGHGPFSHMFDGRFIPRARPEKKWKHEQGSIEMFEHLVNSNELKLVMKNYGLVPEEDITFIKEQIMGPPITPVKDSLWPYKGRPATKSFLYEIVSNKRNGIDVDKWDYFARDCHHLGIQNNFDYKRFIKFARICEVEYKVKEDKTYIRKVKHICSREKEVGNLYDMFHTRNCLHRRAYQHKISNLIDIMITDAFLKADPYVEITGTAGKKFRISTAIDDMEAFTKLTDNIFLEVLHSTDPQLSEAQSILRNIECRNLYKYLGETQPKREKIRKEEYERLPQEVAKAKPEKAPDVELKAEDFIVDVINVDYGMEDKNPIDRVHFYCKSNSKQAVRINKEQVSQLLPEKFAEQLIRVYCKKKDGKSLDAAGKHFVQWCALRDFTKPQDGDIIAPLITPLKWNNKTSSCLQEVSKVKTCLKF
notes: mouse SAMHD1 isoform 1, HD domain without the SAM domain, residues 145-658; The text speaks of 'mHD' and gives limits for both isoforms; source: E. coli BL21 (DE3), purified (Ni-NTA, size-exclusion chromatography)
Consider B2, for which the entries for the “stoichiometry N” value in series [15] and in [14] were 2 and 4, respectively.
